In the supplement of paper PMC12764529:
± gives the half width of the 95% confidence interval.

Assays:
[1] = folding stability dG unfold from chymotrypsin proteolysis; higher = more stable
Summary of the method: (§1)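 How resistant each design was to proteolysis was captured as K50, inferred by Bayesian fitting of sequencing counts. Unfolding free energy was then derived relative to a sequence-predicted unfolded-state K50 and a shared folded-state K50, per protease or combined. Digestion used trypsin and chymotrypsin at 11 threefold-diluted concentrations plus a no-protease condition, on mini-proteins under 80 residues without cysteine in a PA-tagged cDNA display construct. Designs were kept only when AlphaFold2 dimer inter-PAE was above 15.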

[2] = folding stability dG unfold (combined trypsin and chymotrypsin); higher = more stable
Summary of the method: as §1

[3] = folding stability dG unfold from trypsin proteolysis; higher = more stable
Summary of the method: as §1

SARIRFPDGKPIDMEIVNIHRTPNGLTITIVLRHKDEYRVITFEIPPDGEIRIKSVERVPLPPGDPALVSAG [r14_13_TrROS]
folding stability dG unfold [1]: 3.37 ± 0.059 kcal/mol | folding stability dG unfold [2]: 2.96 ± 0.12 kcal/mol | folding stability dG unfold [3]: 1.46 ± 0.059 kcal/mol

SASASQTTIEYTVPVPAGTSPDEPLTLTVTLPDKEIPIEVGTLENLPPDATVTITLDTTEPTFTVTLTPSAG [r14_554_JUSTAS]
folding stability dG unfold [1]: -0.451 ± 0.23 kcal/mol | folding stability dG unfold [2]: 0.799 ± 0.096 kcal/mol | folding stability dG unfold [3]: 1.52 ± 0.051 kcal/mol

SASESAVVEEEYTIDVTTVTPPGTPTTEPVRLTITRLPPNTVEVTLTAPDGKTVETRVIPLSVSLEELLSAG [r14_559_JUSTAS]
folding stability dG unfold [1]: 0.134 ± 0.3 kcal/mol | folding stability dG unfold [2]: 0.493 ± 0.16 kcal/mol | folding stability dG unfold [3]: 0.413 ± 0.14 kcal/mol

SASFRLEFPGVRIEVEVEEVEVFPRPDGRPYRLYRAKIRFLDVPEELQALDFPFSLDDEIEVLFLVSLDSAG [r14_942_TrMRF]
folding stability dG unfold [1]: 4.36 ± 0.12 kcal/mol | folding stability dG unfold [2]: 4.18 ± 0.12 kcal/mol | folding stability dG unfold [3]: 3.84 ± 0.07 kcal/mol

SASKKPKLIIVDIVIKPEELKKMKPEELIEKILKELGIPKEKDVKIDLFLEPVELDGEEYYIIPALITNSAG [r14_334_TrMRF]
folding stability dG unfold [1]: 1.08 ± 0.14 kcal/mol | folding stability dG unfold [2]: 1.24 ± 0.28 kcal/mol | folding stability dG unfold [3]: 1.11 ± 0.13 kcal/mol

SASLANGGLRVDVELEFDPETHEIRVKRLTLYRGDEPVATADATIAVPPAAPPPPPVVVLDPDVPFDNESAG [r14_571_TrMRF]
folding stability dG unfold [1]: 1.71 ± 0.084 kcal/mol | folding stability dG unfold [2]: 1.28 ± 0.12 kcal/mol | folding stability dG unfold [3]: 0.687 ± 0.075 kcal/mol

SASLEEILASLGYSVSRSVLPNGTEVVTARHPDGTTVTVTVTPDGTTVTVTPPDGTVTTLSVEDVRRALSAG [r14_578_JUSTAS]
folding stability dG unfold [1]: 3.118 ± 0.017 kcal/mol | folding stability dG unfold [2]: 3.03 ± 0.05 kcal/mol | folding stability dG unfold [3]: 2.97 ± 0.045 kcal/mol

SASLVPTEREFELPGGERLRVTTPLDPNSDTPTVTVEKFTEAPDGTVTSTTTTVPPSEVAAVLEALGLRSAG [r14_416_JUSTAS]
folding stability dG unfold [1]: 0.147 ± 0.045 kcal/mol | folding stability dG unfold [2]: 0.423 ± 0.052 kcal/mol | folding stability dG unfold [3]: 0.664 ± 0.023 kcal/mol

SASLVVRLPDGTEILFENLSLEEVVKLFDGGEIEIEPVPKLPVVNASSLEEAEEIAEKLKPDFVITLSGSAG [r14_445_TrMRF]
folding stability dG unfold [1]: 1.6 ± 0.044 kcal/mol | folding stability dG unfold [2]: 1.61 ± 0.074 kcal/mol | folding stability dG unfold [3]: 1.6 ± 0.088 kcal/mol

SASNRVTVSSETVREGDKKLLKLTVTITDSSTGRTSTETLTTEDPEKAREELAARPDVSTLTFETLTPGSAG [r14_464_JUSTAS]
folding stability dG unfold [1]: -0.196 ± 0.2 kcal/mol | folding stability dG unfold [2]: 0.1 ± 0.19 kcal/mol | folding stability dG unfold [3]: 0.303 ± 0.12 kcal/mol

SASPDAPVEVVVSLRELRERIEAEHPGRPVTPEDVAALAREELEAAGRPLEDLRVEAVDEATGTVRLVASAG [r14_303_JUSTAS]
folding stability dG unfold [1]: 1.29 ± 0.019 kcal/mol | folding stability dG unfold [2]: 0.907 ± 0.035 kcal/mol | folding stability dG unfold [3]: -0.251 ± 0.054 kcal/mol

SASPDETVILEKVLPPSASPEEVEKEREEIREKLESLGAKVEVTIEPDPETGTIPIKITITKEQYEKLKSAG [r14_602_JUSTAS]
folding stability dG unfold [1]: 0.0517 ± 0.056 kcal/mol | folding stability dG unfold [2]: 0.034 ± 0.15 kcal/mol | folding stability dG unfold [3]: -0.459 ± 0.064 kcal/mol

SASPRTITVPVTRFPDGTVRFTIETPDKTITLTFPPSATFEEALEKLSPDPDKKITLVEKDPTTVTVAESAG [r14_404_JUSTAS]
folding stability dG unfold [1]: 0.852 ± 0.16 kcal/mol | folding stability dG unfold [2]: 0.873 ± 0.13 kcal/mol | folding stability dG unfold [3]: 0.781 ± 0.051 kcal/mol

SASSELLELLKALPTPEVPTDPIFTLEEPDRPIRVLSYDPETGLVTMLIPGTGARLIRDPASGTYTLLPSAG [r14_359_JUSTAS]
folding stability dG unfold [1]: 0.92 ± 0.071 kcal/mol | folding stability dG unfold [2]: 0.578 ± 0.066 kcal/mol | folding stability dG unfold [3]: -0.184 ± 0.07 kcal/mol

SASSFPPGSTATLTVRVTDPAGTATTTLTIPLSVDPSTGKAVSLEEVYEILKELGVDPANVTITSLTVSSAG [r14_93_JUSTAS]
folding stability dG unfold [1]: 3.143 ± 0.024 kcal/mol | folding stability dG unfold [2]: 3.07 ± 0.08 kcal/mol | folding stability dG unfold [3]: 3.07 ± 0.088 kcal/mol

SASSSFTLPGLKLEVETQKVSTFPTPDGTPVVLYETTIHFLEVPESLRAEGKPLSLESSVKKLKVVPLPSAG [r14_942_JUSTAS]
folding stability dG unfold [1]: 0.453 ± 0.33 kcal/mol | folding stability dG unfold [2]: 0.391 ± 0.2 kcal/mol | folding stability dG unfold [3]: 0.277 ± 0.14 kcal/mol

SASSSMSSSSTSRTVPTPEGPVSITITFYPSTGKYTATITDPATSTATTVPSPGSSVEEAIAEAIALLASAG [r14_65_JUSTAS]
folding stability dG unfold [1]: 2.39 ± 0.022 kcal/mol | folding stability dG unfold [2]: 2.21 ± 0.088 kcal/mol | folding stability dG unfold [3]: 1.94 ± 0.091 kcal/mol

SASSVEKEFDSIEDALKAIKEALAKKVPVKMKMDPETVKELKKAGFPDIDVTKEKLPNGNEYYLLELLFSAG [r14_127_JUSTAS]
folding stability dG unfold [1]: 1.2 ± 0.051 kcal/mol | folding stability dG unfold [2]: 1.15 ± 0.058 kcal/mol | folding stability dG unfold [3]: 1.06 ± 0.019 kcal/mol

SASVTTLTFTVTYPGGETETFTVTVPNLTEEEAKALAEKLAEEIQEKSKKPGVKVEVSITRYPADDPALSAG [r14_207_JUSTAS]
folding stability dG unfold [1]: 4.13 ± 0.21 kcal/mol | folding stability dG unfold [2]: 4.2 ± 0.18 kcal/mol | folding stability dG unfold [3]: 3.9 ± 0.17 kcal/mol

SATKTITIELPVDVPVEVLKEFFEALGFTEMEFYETEDPRTLVVRFTVPGDPVTVIVIVRPLPVPPDEPLSA [r9_1090_TrMRF]
folding stability dG unfold [1]: 3.57 ± 0.063 kcal/mol | folding stability dG unfold [2]: 3.55 ± 0.12 kcal/mol | folding stability dG unfold [3]: 3.29 ± 0.16 kcal/mol

SATLTFTATLPDGSRVLEVTAEPRPDGTVTIRMRAEFTFAPGVTVTVPATITVPVPPPPALPPDDPRLFSAG [r14_95_TrMRF]
folding stability dG unfold [1]: 3.33 ± 0.05 kcal/mol | folding stability dG unfold [2]: 3.09 ± 0.086 kcal/mol | folding stability dG unfold [3]: 2.73 ± 0.057 kcal/mol

SATPYTFTLPDGYVIPAYKLPDGTVRVTAQYYDPVDRKPVGTYEATADPTDGTIELTFPNGDKATITLPDSA [r9_56_TrMRF]
folding stability dG unfold [1]: 1.01 ± 0.1 kcal/mol | folding stability dG unfold [2]: 1.01 ± 0.09 kcal/mol | folding stability dG unfold [3]: 0.859 ± 0.051 kcal/mol

SAVSTAQLPDDTTLTTITLPGDPSVTLTITTRKLPDGTPYLDATITLPDGTPVTVTFPAGTEAAVIAALASA [r9_310_JUSTAS]
folding stability dG unfold [1]: 2.46 ± 0.029 kcal/mol | folding stability dG unfold [2]: 2.44 ± 0.086 kcal/mol | folding stability dG unfold [3]: 2.51 ± 0.097 kcal/mol

SAVTLLSTEFVPEEGVVRLLFERPAPPDTTTFTFSVSVNGYPIESISLSVDPATNTATATATAKVPPGLSAG [r14_244_JUSTAS]
folding stability dG unfold [1]: 4.1 ± 0.11 kcal/mol | folding stability dG unfold [2]: 3.2 ± 0.22 kcal/mol | folding stability dG unfold [3]: 2.42 ± 0.16 kcal/mol

SAWIEIEKDPDGMFELEIPWPDGHPVKIHYNPDDGKPLHIMFPNGWHLQIWISPDGKIEIEDIHPIPPNSAG [r14_877_TrROS]
folding stability dG unfold [1]: 3.12 ± 0.049 kcal/mol | folding stability dG unfold [2]: 3.01 ± 0.13 kcal/mol | folding stability dG unfold [3]: 3.11 ± 0.24 kcal/mol

SAWKIWIEFTPGDPGDTYQIRIDPNSPNLEALLKELAQMFKYEVKDAEVEYNPNGSVWVEFKVDELKPPSAG [r14_655_TrROS]
folding stability dG unfold [1]: 2.67 ± 0.056 kcal/mol | folding stability dG unfold [2]: 2.37 ± 0.095 kcal/mol | folding stability dG unfold [3]: 1.77 ± 0.081 kcal/mol

SDIEIERDPNMIRIEHTYPFDNYRVKISLYVMVGPDGQFMLMIPIEIELPPPPPTPEKDPNGKEKWKPDASA [r9_456_TrROS]
folding stability dG unfold [1]: 4.27 ± 0.21 kcal/mol | folding stability dG unfold [2]: 3.85 ± 0.53 kcal/mol | folding stability dG unfold [3]: 2.67 ± 0.21 kcal/mol

SDIKIENYERNPGNGMYMWTVKLPDDGKKIEIMYPPGGIYISVEHPGKKKMFPFKSWEDMLDQVKDLLKNSA [r9_527_TrROS]
folding stability dG unfold [1]: 1.79 ± 0.23 kcal/mol | folding stability dG unfold [2]: 1.36 ± 0.26 kcal/mol | folding stability dG unfold [3]: 1.24 ± 0.045 kcal/mol

SDKIIIPIYLPPGQDPDEIKNEIKWFARELWDKLGLPPNVKVEIEPRPYPEGYRRYMITIRLGGKEITIWSA [r9_776_TrROS]
folding stability dG unfold [1]: 3.6 ± 0.053 kcal/mol | folding stability dG unfold [2]: 3.34 ± 0.22 kcal/mol | folding stability dG unfold [3]: 3.08 ± 0.1 kcal/mol

SDKIKNMTIEEILKKLPKGVKVGEKVEIEIDGKKITITKVEVVKDKNGKEIKRIYIEVEIDGEKIIIEIESA [r9_279_TrROS_Hall]
folding stability dG unfold [1]: 2.36 ± 0.27 kcal/mol | folding stability dG unfold [2]: 2.69 ± 0.46 kcal/mol | folding stability dG unfold [3]: 2.39 ± 0.23 kcal/mol

SDMKIRIDDIDIQPLDEDGQPITINYKIEFGGQPVYFQIEIWVKPDGPVVIKIDIYNPDNGKPFEWTFPISA [r9_241_TrROS]
folding stability dG unfold [1]: 2.83 ± 0.08 kcal/mol | folding stability dG unfold [2]: 2.48 ± 0.23 kcal/mol | folding stability dG unfold [3]: 2.13 ± 0.09 kcal/mol

SDPGHKFKMEIVREIYLPGQIRIFVHKMEHPNGNPWVNVMVRNPDGQMEPIAMVPSDDPDAKDEALKLIKSA [r9_1069_TrROS]
folding stability dG unfold [1]: 0.506 ± 0.14 kcal/mol | folding stability dG unfold [2]: 0.391 ± 0.1 kcal/mol | folding stability dG unfold [3]: 0.035 ± 0.12 kcal/mol

SDRIEIEIWRHPNWWMIKIKVRDDGEPVGTQSFPVDDGMDIEEIADNLLNRNPNYKVEITEIEPMPPPPGSA [r9_364_TrROS]
folding stability dG unfold [1]: 3.82 ± 0.12 kcal/mol | folding stability dG unfold [2]: 3.36 ± 0.41 kcal/mol | folding stability dG unfold [3]: 2.86 ± 0.16 kcal/mol

SDYMPVHKMESDGKRNPNGQHEYEPKMEPVWVPVPPPPPRIRIPPEWREKLKELAEKLGHPITDDDINKISA [r9_487_TrROS]
folding stability dG unfold [1]: 0.0759 ± 0.051 kcal/mol | folding stability dG unfold [2]: -0.13 ± 0.31 kcal/mol | folding stability dG unfold [3]: -0.283 ± 0.19 kcal/mol

SEALEKAAEAGVKTIYVYVKPGDLEEIKRLKALDVKIVLYATEEIPPEAFEALPGVKVEKVEWISPEELPSA [r9_671_TrMRF]
folding stability dG unfold [1]: 2.08 ± 0.052 kcal/mol | folding stability dG unfold [2]: 1.65 ± 0.1 kcal/mol | folding stability dG unfold [3]: 0.759 ± 0.023 kcal/mol

SEEELENLPNVVRLELEVEIDGVRVRIETEFRLNEDGSLEVRTRIEVEPLPPPVEVVLDENGELVEVRVESA [r9_456_TrROS_Hall]
folding stability dG unfold [1]: 3.42 ± 0.13 kcal/mol | folding stability dG unfold [2]: 3.12 ± 0.14 kcal/mol | folding stability dG unfold [3]: 2.81 ± 0.08 kcal/mol
